Test results: PMC3173608, “Atomic Resolution Insights into Curli Fiber Biogenesis” (Structure(London, England:1993), 2011)
Where “and” joins values, the source holds several entries; their conditions need not be identical. Identical values can stand only once.

Target: the molecule itself
Test: SEC + native gel or EMSA

B1: CsgG-6xHis (natural protein)
chain: CLTAPPKEAARPTLMPRAQSYKDLTHLPAPTGKIFVSVYNIQDETGQFKPYPASNFSTAVPQSATAMLVTALKDSRWFIPLERQGLQNLLNERKIIRAAQENGTVAINNRIPLQSLTAANIMVEGSIIGYESNVKSGGVGARYFGIGADTQYQLDQIAVNLRVVNVSTGEILSSVNTSKTILSYEVQAGVFRFIDYQRLLEGEVGYTSNEPVMLCLMSAIETGVIFLINDGIDRGLWDLQNKAERQNDILVKYRHMSVPPES
modifications: C16 becomes the lipidated N terminus of the mature protein (said of CsgG in general)
notes: also called recombinant CsgG-6xHis; protein-detergent complex; not shown: His6, C-terminal, kept
- stoichiometry N: 7 protomers and 9 protomers
